Test results reported in patent publication US20230032737A1 (published 2023).
Values belong to the binder of their own block, whether it stands above or below them.

Biological target: purified human factor D (from human plasma) (human, UniProt P00746 26-253)
Test: Biacore SPR

purified human factor D (from human plasma), sequence (P00746 26-253): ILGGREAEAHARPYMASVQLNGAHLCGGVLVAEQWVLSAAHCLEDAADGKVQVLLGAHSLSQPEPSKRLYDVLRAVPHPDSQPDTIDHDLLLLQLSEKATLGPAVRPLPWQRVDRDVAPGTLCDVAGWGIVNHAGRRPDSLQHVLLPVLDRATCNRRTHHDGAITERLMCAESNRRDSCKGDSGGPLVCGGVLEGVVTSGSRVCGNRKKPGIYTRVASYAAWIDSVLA

- Kd: 153 pM
B1: recombinant chimeric 11-8A1 (variable region of 11-8A1 + constant region of human IgG4) (antibody, V domains shown)
VH: EVQLQQSGADLVRPGASVKLSCTTSGFNIKDTYVHWVKQRPEQGLEWIGRIDPANGLTTFDPRFQAKATITADTSSNTAYLQLSSLTSEDTAVYYCTYAMEYWGQGTSVTVSS
VL: QIVLTQSPAIMSASPGERVTMTCSARSDVSYMYWYQQKPGSSPRLLIYDTSNLASGVPVRFSASGSGTSYSLTISRMEAEDAATYYCQQWSSYPPWTFGGGTKLEIK

- Kd: 148 pM
B2: mAb 11-8A1 (hybridoma-derived murine anti-human factor D monoclonal antibody) (antibody, V domains shown)
VH: B1 VH
VL: QIVLTQSPAIMSASPGERVTMTCSARSDVSYMYWYQQKPGSSPRLLIYDTSNLASGVPVRFSASGSGTSYSLTISRMEAEDAATYYCQQWSSYPPWTFGGGTKLEIKR
